Data set [1] deals with the molecule itself. The data set can be described thus: SEC; individual purified SNARE domains of the Bos1 variants (oligomeric state of single proteins); Superdex 75, PBS with 200 mM NaCl.
Data set [2] concerns the target T1, Bet1 1-118 (yeast, UniProt P22804 1-118).
T1 construct: Bet1, yeast ER-to-Golgi Qc-SNARE, residues 1-118 (not only the SNARE domain); also called Qc-SNARE; source: E. coli BL21 (DE3), purified (Ni2+-NTA, ion exchange)
T1 sequence (looked up): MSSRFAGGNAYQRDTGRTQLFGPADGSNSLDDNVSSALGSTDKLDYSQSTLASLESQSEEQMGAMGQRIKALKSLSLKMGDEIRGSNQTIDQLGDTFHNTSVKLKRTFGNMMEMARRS
Kind of data set: SEC; quaternary SNARE complexes assembled from equal amounts of purified Sed5 (211-320), Bet1 (1-118), Sec22 (126-186) and one Bos1 (151-221) variant, incubated overnight; Superdex 75, PBS with 200 mM NaCl. As to conditions: both partners purified.

For data set [3], the target named is T2, Sed5 211-320 (SNARE domain) (yeast, UniProt Q01590 211-320).
T2 construct: Sed5, yeast ER-to-Golgi Qa-SNARE, SNARE domain, residues 211-320; also called Qa-SNARE; source: E. coli BL21 (DE3), purified (Ni2+-NTA, ion exchange)
T2 sequence (looked up): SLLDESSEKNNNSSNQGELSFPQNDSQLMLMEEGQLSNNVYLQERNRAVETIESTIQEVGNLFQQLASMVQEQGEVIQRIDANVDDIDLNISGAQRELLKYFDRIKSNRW
The description is as above. The settings on record: both partners purified.

Data set [4] concerns the target T1, Bet1 1-118. The data set can be described thus: fluorescence polarisation; fluorescence anisotropy over time; 500 nM OG-labelled Sec22 126-186 C131OG mixed with 2.7 uM Sed5 211-320, Bet1 1-118 and Bos1 151-221 or its mutants; PBS, 25°C. As to conditions: both partners purified. A general note: In fluorescence polarisation assays a small probe gives low polarisation when free and higher when bound to something large.

Data set [5] deals with T2, Sed5 211-320 (SNARE domain). The data set is described as above. As to conditions: both partners purified.

Changes are numbered by the printed parent chain.

B1: Bos1 151-221 p.Arg196del (domain or fragment, Saccharomyces cerevisiae, UniProt P25385 151-221, looked up)
chain: LYQGLQKEQSVFERGNAQLDYILEMGQQSFENIVEQNKILSKVQDMSNGLRTLGVSEQTITSINKRVFKD
notes: Bos1, Saccharomyces cerevisiae, SNARE domain, residues 151-221, with arginine 196 deleted (orthologous to GOSR2 p.Lys164del); also called Bos1 p.Arg196del; source: E. coli BL21 (DE3), purified (Ni2+-NTA, ion exchange)
For B1, the binding result (in data set [1]; in the data set with Bet1 1-118 [2]; in data set [3]) was “binds” each time.

B2: Bos1 151-221 wild type (SNARE domain) (domain or fragment, Saccharomyces cerevisiae, UniProt P25385 151-221, looked up)
chain: LYQGLQKEQSVFERGNAQLDYILEMGQQSFENIVEQNKILSKVQDRMSNGLRTLGVSEQTITSINKRVFKD
notes: Bos1, Saccharomyces cerevisiae, SNARE domain, residues 151-221; Forms homo-oligomers of unstated size as the isolated SNARE domain; also called Bos1 wt; wild-type Bos1; source: E. coli BL21 (DE3), purified (Ni2+-NTA, ion exchange)
Turning to B2, the binding result (in data set [1]; with Bet1 1-118 [4]; in data set [3]) was “binds” throughout.

B3: Bos1 151-221 p.Gly176Trp (domain or fragment, Saccharomyces cerevisiae, UniProt P25385 151-221, looked up)
chain: B2 chain with G26W
notes: Bos1, Saccharomyces cerevisiae, SNARE domain, residues 151-221, with Gly176Trp (orthologous to GOSR2 p.Gly144Trp); also called Bos1 p.Gly176Trp; source: E. coli BL21 (DE3), purified (Ni2+-NTA, ion exchange)
With B3, the binding result (with Bet1 1-118 [4]; in data set [5]) was “binds” throughout.

B4: Bos1 151-221 p.Gly176Asp (domain or fragment, Saccharomyces cerevisiae, UniProt P25385 151-221, looked up)
chain: B2 chain with G26D
notes: Bos1, Saccharomyces cerevisiae, SNARE domain, residues 151-221, with the designed Gly176Asp mutation; also called Bos1 p.Gly176Asp; source: E. coli BL21 (DE3), purified (Ni2+-NTA, ion exchange)
For the molecule B4, the binding result (in data set [1]; in the data set with Bet1 1-118 [2]; in data set [3]) was “binds” in each case.

The record behind these values is PMC5769602, “Functional assays for the assessment of the pathogenicity of variants of GOSR2, an ER-to-Golgi SNARE involved in progressive myoclonus epilepsies” (Disease Models & Mechanisms, 2017).
